Assay results reported in PMC9301641.

Experiments:
[1] = biological target: Snof3, yeast surface-displayed; assay: flow cytometry on cells
[2] = biological target: Snof10, yeast surface-displayed; assay: flow cytometry on cells
Snof3-LgBiT = assay: split reporter
SmBiT-Snof10 = assay: split reporter

- Kd [1]: 11 nM
- Kd [2]: 28 nM
- Kd (Snof3-LgBiT): 20 nM
- Kd (SmBiT-Snof10): 20 nM
B1: Sso6904 (natural protein)
chain: MMAMSILEDPEFVKLRQFKGKVNFNLVMQILDEIELDLRGSDNIKTSIIYVYSSHLDEIRKNKEFYDMIAEILQRYYKKIGIENVNQLILTTIK
